Data published in article PMC9669019, “Molecular basis for integrin adhesion receptor binding to p21-activated kinase 4 (PAK4)” (Communications Biology, 2022).

Tests used:
integrin β5 tail [1] = assay: Pull-down of wild-type and mutated full-length GFP-PAK4 by wild-type integrin β5 tail; format: binding
Description: (§1) Pull down assays were performed as previously described[45],[60]. Briefly, constructs encoding an N-terminal His-tag followed by a helical region, a 4-glycine spacer, and an integrin cytoplasmic tail sequence were produced in BL21 (DE3) bacteria. Following bacterial cell lysis, recombinant protein was bound to Ni-NTA beads, eluted with imidazole, dialyzed and further purified by reverse-phase high-performance liquid chromatography (HPLC). Purified protein was lyophilized for storage and was used to coat fresh Ni-NTA beads to generate an affinity matrix for pull-down assays.
(§2) For pulldowns from cell lysates, human PAK4 constructs were generated in pEGFP (Takara Bio Inc.) by PCR amplification from a pLX304 PAK4 isoform 1 (Uniprot O96013-1) construct kindly provided by Michael Calderwood (Dana-Farber Cancer Institute). Mutations and deletions were introduced by QuikChange mutagenesis or PCR amplification. Chinese hamster ovary (CHO) cells were seeded on 10 cm tissue culture dishes and transiently transfected with GFP-tagged constructs using polyethylenimine (Polysciences). After 24 h, cells were harvested and lysed in buffer X (1 mM NaVO4, 50 mM NaF, 40 mM sodium pyrophosphate, 50 mM NaCl, 150 mM sucrose, 10 mM Pipes, pH 6.8) containing 0.5% Triton X-100, 0.2% deoxycholic acid, and complete EDTA-free protease inhibitor mixture (Roche, Indianapolis, IN, USA) for 15 min at 4 °C. After clarification by centrifugation, lysate was diluted in buffer X-T (buffer X with 0.05% Triton X-100) and incubated with His-tagged integrin tails coupled to Ni-NTA beads for 4 h with rocking at 4 °C. For experiments using purified PAK4cat, protein was incubated with His-tagged integrin tails coupled to Ni-NTA beads in buffer X-T for 2 h with rocking at 4 °C. Beads were then washed three times with buffer X-T, and bound proteins were fractionated by reducing SDS-PAGE and analyzed by immunoblotting with anti-GFP antibodies (600-101-215, Rockland). Immunoblots were imaged on an Odyssey IR imaging system (Li-Cor; Lincoln, NE, USA) and analyzed using Image Studio Lite (Li-Cor; Lincoln, NE, USA). For the quantification of binding from immunoblots, the fluorescence intensity of the band corresponding to bound material was quantified as a fraction of the fluorescence of the input material band for each condition. Loading of integrin tails was assessed by Coomassie Blue staining. Data were analyzed using GraphPad Prism.

integrin β5 tail [2] = assay: Pull-down of wild-type and mutated GFP-PAK4 catalytic domain by wild-type integrin β5 tail; format: binding; conditions: for Effect of PAK4 mutation on pull-down by integrin β5: catalytic domain (Fig. 4g) and full-length PAK4 (Fig. 4h)
Description: as §1, §2

[3] = Figure 4H source data, full-length PAK4, experiment row r4
[4] = Figure 4G source data, PAK4 catalytic domain, replicate 1

| Binding to wild-type integrin β5 tail, normalized to FL-WT (integrin β5 tail [1]; [3]) | Binding to wild-type integrin β5 tail, normalized to FL-WT (integrin β5 tail [1]; Figure 4H, experiment row r5) | Binding to wild-type integrin β5 tail, normalized to cat-WT (integrin β5 tail [2]; [4]) | Binding to wild-type integrin β5 tail, normalized to cat-WT (integrin β5 tail [2]; Figure 4G, replicate 2) | Binding to wild-type integrin β5 tail, normalized to cat-WT (integrin β5 tail [2]; Figure 4G, replicate 3) | Binding to wild-type integrin β5 tail, normalized to cat-WT (integrin β5 tail [2]; Figure 4G, replicate 4) | Binding to wild-type integrin β5 tail, normalized to cat-WT (integrin β5 tail [2]; Figure 4G, replicate 5) | Binding to wild-type integrin β5 tail, normalized to cat-WT (integrin β5 tail [2]; Figure 4G, replicate 6) | Binding to wild-type integrin β5 tail, normalized to cat-WT (integrin β5 tail [2]; Figure 4G, replicate 7) | Binding to wild-type integrin β5 tail, normalized to FL-WT (integrin β5 tail [1]; Figure 4H, experiment row r8) | Binding to wild-type integrin β5 tail, normalized to FL-WT (integrin β5 tail [1]; Figure 4H, experiment row r10) | Binding to wild-type integrin β5 tail, normalized to FL-WT (integrin β5 tail [1]; Figure 4H, experiment row r17) | Binding to wild-type integrin β5 tail, normalized to FL-WT (integrin β5 tail [1]; Figure 4H, experiment row r19) | Binding to wild-type integrin β5 tail, normalized to FL-WT (integrin β5 tail [1]; Figure 4H, experiment row r6) | Binding to wild-type integrin β5 tail, normalized to FL-WT (integrin β5 tail [1]; Figure 4H, experiment row r7) | Molecule | Effect of PAK4 mutation on pull-down by integrin β5 (integrin β5 tail [2]) | other results |
| --- | --- | --- | --- | --- | --- | --- | --- | --- | --- | --- | --- | --- | --- | --- | --- | --- | --- |
| 0.235 | 0.008 | 0.04069 | 0.001166 | 0.2433 | 0.09577 | 3.582e-6 | 0.09749 | 0.0832 | – | – | – | – | – | – | D444A: GFP-tagged PAK4 D444A mutant; catalytic domain (Fig 4G) or full-length (Fig 4H) (protein, UniProt O96013 1-591, looked up, variant D444A, GFP tag; catalytic domain or full-length) Serine/threonine-protein …: MFGKRKKRVEISAPSNFEHRVHTGFDQHEQKFTGLPRQWQSLIEESARRPKPLVDPACITSIQPGAPKTIVRGSKGAKDGALTLLLDEFENMSVTRSNSLRRDSPPPPARARQENGMPEEPATTARGGPGKAGSRGRFAGHSEAGGGSGDRRRAGPEKRPKSSREGSGGPQESSRDKRPLSGPDVGTPQPAGLASGAKLAAGRPFNTYPRADTDHPSRGAQGEPHDVAPNGPSAGGLAIPQSSSSSSRPPTRARGAPSPGVLGPHASEPQLAPPACTPAAPAVPGPPGPRSPQREPQRVSHEQFRAALQLVVDPGDPRSYLDNFIKIGEGSTGIVCIATVRSSGKLVAVKKMDLRKQQRRELLFNEVVIMRDYQHENVVEMYNSYLVGDELWVVMEFLEGGALTDIVTHTRMNEEQIAAVCLAVLQALSVLHAQGVIHRDIKSASILLTHDGRVKLSDFGFCAQVSKEVPRRKSLVGTPYWMAPELISRLPYGPEVDIWSLGIMVIEMVDGEPPYFNEPPLKAMKMIRDNLPPRLKNLHKVSPSLKGFLDRLLVRDPAQRATAAELLKHPFLAKAGPPASIVPLMRQNRTR | strong inhibition | Binding to wild-type integrin β5 tail, normalized to FL-WT (integrin β5 tail [1]; Figure 4H, experiment row r14): 0.233; Binding to wild-type integrin β5 tail, normalized to FL-WT (integrin β5 tail [1]; Figure 4H, experiment row r15): 0.015 |
| 0.221 | 0.9415 | 0.8373 | 0.4614 | 0.71 | 1.075 | 0.4677 | 1.0032 | 1.283 | 0.58 | 3.01 | 1.265 | 1.25 | – | – | Q358A: GFP-tagged PAK4 Q358A mutant; catalytic domain (Fig 4G) or full-length (Fig 4H) (protein, UniProt O96013 1-591, looked up, variant Q358A, GFP tag) Serine/threonine-protein …: MFGKRKKRVEISAPSNFEHRVHTGFDQHEQKFTGLPRQWQSLIEESARRPKPLVDPACITSIQPGAPKTIVRGSKGAKDGALTLLLDEFENMSVTRSNSLRRDSPPPPARARQENGMPEEPATTARGGPGKAGSRGRFAGHSEAGGGSGDRRRAGPEKRPKSSREGSGGPQESSRDKRPLSGPDVGTPQPAGLASGAKLAAGRPFNTYPRADTDHPSRGAQGEPHDVAPNGPSAGGLAIPQSSSSSSRPPTRARGAPSPGVLGPHASEPQLAPPACTPAAPAVPGPPGPRSPQREPQRVSHEQFRAALQLVVDPGDPRSYLDNFIKIGEGSTGIVCIATVRSSGKLVAVKKMDLRKQARRELLFNEVVIMRDYQHENVVEMYNSYLVGDELWVVMEFLEGGALTDIVTHTRMNEEQIAAVCLAVLQALSVLHAQGVIHRDIKSDSILLTHDGRVKLSDFGFCAQVSKEVPRRKSLVGTPYWMAPELISRLPYGPEVDIWSLGIMVIEMVDGEPPYFNEPPLKAMKMIRDNLPPRLKNLHKVSPSLKGFLDRLLVRDPAQRATAAELLKHPFLAKAGPPASIVPLMRQNRTR | no effect on binding | Binding to wild-type integrin β5 tail, normalized to FL-WT (integrin β5 tail [1]; Figure 4H, experiment row r18): 0.66; Binding to wild-type integrin β5 tail, normalized to cat-WT (integrin β5 tail [2]; Figure 4G, replicate 8): 1.183; Binding to wild-type integrin β5 tail, normalized to cat-WT (integrin β5 tail [2]; Figure 4G, replicate 9): 0.828 |
| 0.259 | 1.377 | 0.517 | 0.2755 | 0.5038 | 0.2427 | 0.2915 | 0.007133 | – | 0.381 | 1.044 | 0.149 | 0.8 | 0.432 | 0.512 | M482K: GFP-tagged PAK4 M482K mutant; catalytic domain (Fig 4G) or full-length (Fig 4H) (protein, UniProt O96013 1-591, looked up, variant M482K, GFP tag) Serine/threonine-protein …: MFGKRKKRVEISAPSNFEHRVHTGFDQHEQKFTGLPRQWQSLIEESARRPKPLVDPACITSIQPGAPKTIVRGSKGAKDGALTLLLDEFENMSVTRSNSLRRDSPPPPARARQENGMPEEPATTARGGPGKAGSRGRFAGHSEAGGGSGDRRRAGPEKRPKSSREGSGGPQESSRDKRPLSGPDVGTPQPAGLASGAKLAAGRPFNTYPRADTDHPSRGAQGEPHDVAPNGPSAGGLAIPQSSSSSSRPPTRARGAPSPGVLGPHASEPQLAPPACTPAAPAVPGPPGPRSPQREPQRVSHEQFRAALQLVVDPGDPRSYLDNFIKIGEGSTGIVCIATVRSSGKLVAVKKMDLRKQQRRELLFNEVVIMRDYQHENVVEMYNSYLVGDELWVVMEFLEGGALTDIVTHTRMNEEQIAAVCLAVLQALSVLHAQGVIHRDIKSDSILLTHDGRVKLSDFGFCAQVSKEVPRRKSLVGTPYWKAPELISRLPYGPEVDIWSLGIMVIEMVDGEPPYFNEPPLKAMKMIRDNLPPRLKNLHKVSPSLKGFLDRLLVRDPAQRATAAELLKHPFLAKAGPPASIVPLMRQNRTR | moderate effect | Binding to wild-type integrin β5 tail, normalized to FL-WT (integrin β5 tail [1]; Figure 4H, experiment row r11): 0.278 |
| – | 0.472 | 0.1343 | 0.09959 | 0.2543 | 0.09217 | 0.08446 | 0.3379 | – | 0.106 | – | – | – | 0.89 | 0.486 | E512R: GFP-tagged PAK4 E512R mutant; catalytic domain (Fig 4G) or full-length (Fig 4H) (protein, UniProt O96013 1-591, looked up, variant E512R, GFP tag) Serine/threonine-protein …: MFGKRKKRVEISAPSNFEHRVHTGFDQHEQKFTGLPRQWQSLIEESARRPKPLVDPACITSIQPGAPKTIVRGSKGAKDGALTLLLDEFENMSVTRSNSLRRDSPPPPARARQENGMPEEPATTARGGPGKAGSRGRFAGHSEAGGGSGDRRRAGPEKRPKSSREGSGGPQESSRDKRPLSGPDVGTPQPAGLASGAKLAAGRPFNTYPRADTDHPSRGAQGEPHDVAPNGPSAGGLAIPQSSSSSSRPPTRARGAPSPGVLGPHASEPQLAPPACTPAAPAVPGPPGPRSPQREPQRVSHEQFRAALQLVVDPGDPRSYLDNFIKIGEGSTGIVCIATVRSSGKLVAVKKMDLRKQQRRELLFNEVVIMRDYQHENVVEMYNSYLVGDELWVVMEFLEGGALTDIVTHTRMNEEQIAAVCLAVLQALSVLHAQGVIHRDIKSDSILLTHDGRVKLSDFGFCAQVSKEVPRRKSLVGTPYWMAPELISRLPYGPEVDIWSLGIMVIEMVDGRPPYFNEPPLKAMKMIRDNLPPRLKNLHKVSPSLKGFLDRLLVRDPAQRATAAELLKHPFLAKAGPPASIVPLMRQNRTR | strong inhibition | Binding to wild-type integrin β5 tail, normalized to FL-WT (integrin β5 tail [1]; Figure 4H, experiment row r9): 0.64 |
